Reference: patent publication US7691605

Target: Lz-linker-DHFR 106-187 (yeast) (UniProt P03069)
Assay: cell-based or functional assay

**Q.** How did the cell survival in DHFR selection media lacking glycine, hypoxanthine and thymidine (-GHT) turn out when “Lz-linker-DHFR 1-105 (from UniProt P03069 253-274)” was run?
**A.** Its cell survival in DHFR selection media lacking glycine, hypoxanthine and thymidine (-GHT) is under 90 % viability.
